According to the DeepSol protein solubility set:

Assay: soluble on expression in E. coli; label from the status in PepcDB or PDB records

Sequence	soluble on expression in E. coli
MSLKTLLPTSTAGSLPKPSWLAQPEKLWSPWKLQDEELIEGKRDALRLSLNDQQQAGIDIVSDGEQTRQHFVTTFIEHLSGVDFEKRETVRIRNRYDASVPTVVGAVSREKPVFVEDAKFLRQQTRQPIKWALPGPMTMIDTLYDSHYKSREKLAWEFAKILNQEARELEAAGVDIIQFDEPAFNVFFDEVNDWGVATLEKAIEGLKCETAVHICYGYGIKANTDWKKTLGSEWRQYEEAFPKLQKSNIDLISLECHNSRVPMDLIELIRGKKVMVGAIDVATSAIETPEEVADTLRKALRFVDADKLYPCTNCGMAPLSRQVARSKLNALGAGAEIIRRELSVEGHHHHHH	soluble
MTVTIKELTNHNYIDHELSATLDSTDAFEGPEKLLEIWFFPHKKSITTEKTLRNIGMDRWIEILKLVKCEVLSMKKTKELDAFLLSESSLFVFDHKLTMKTCGTTTTLFCLEKLFQIVEQELSWAFRTTQGGKYKPFKVFYSRRCFLFPCKQAAIHQNWADEVDYLNKFFDNGKSYSVGRNDKSNHWNLYVTETDRSTPKGKEYIEDDDETFEVLMTELDPECASKFVCGPEASTTALVEPNEDKGHNLGYQMTKNTRLDEIYVNSAQDSDLSFHHDAFAFTPCGYSSNMILAEKYYYTLHVTPEKGWSYASFESNIPVFDISQGKQDNLDVLLHILNVFQPREFSMTFFTKNYQNQSFQKLLSINESLPDYIKLDKIVYDLDDYHLFYMKLQKKI	soluble
MAHHHHHHMATSSHRTAMSSLSAAMKQYVQQAAEDDVVCAFGPDYFHGARTGACVGSLFSATLCWYTFRLLKEDQREVDFLAGLKHGQRNPHFSTWTLLRGLRTQPMLTTGCIALATTSAMKCIKCYLANQRCREFFTDDVQFHMISELSETDLDAAAFLSTVLHNANGCGVGARNALSTLREDRSEDQPSMSPAPTASASTSTVNGLLHTHSSRLDSKEFTLTHRAPTYYDGVAVAFLGSVLDCYLPQKPVQKYYNMRVGTW	not soluble
KKKKKKDPNEPQKPVSAYALFFRDTQAAIKGQNPNATFGEVSKIVASMWDGLGEEQKQVYKKKTEAAKKEYLKQLAAYRASLVSKSYTD	soluble
GPGSMKERYDPLPPQLETYLRLIPPTSGAASGKADGDKKTGPRRSDDDPMSFYCTSFLMSREWDVQKAFAMMQEVVAYRAVNHLDEQSHFPPAFSVRGWSTEDVCRALERSPRKVGERIDRVCAGVAQGLICGIHYWDKNGRPVFYMVIDSFDEAELMRQLKQMASVGKSHVDVMWEYMVHVLSVTESLVLYQLIQRGAPLSGRPLTSKTTDEEAPAWDLSEGAVTMVYDMKRLTLKMLWKPIIDMFCDNSKTFFNYYPDRIHRIVCVNSPSLVRYAFLLVRGVLPAAFQRKISFVSPHDTLATLETMIDRKYIPHFLGGDCRCEAHDGECLSGYDPRQTGRTRRTVARTDASSEGNDEAPTVYVKLAAGHECTRVFPVNASEVVVWEFAVEGGGHDIIFTTFFVPQSAASGMQWTQVELSKLSSYMVTSEALAKGSDAFAVAEDGVVVLKWHNRRHWFASKRLQLRAYKEGAPSTLHGQASHPE	not soluble
MIPATLHQLKVFETTARHGSFTKAAEELSITQPTVSGQVKQLTQTIGMPLFEHIGRKLYLTEAGEELLATCQEIFERLDNFEMKLAALQGAKRGQLRLGVITTTKYFVPRILGEFCQDYPDIDVSLQVINHQQLHDRMADNLDDLYILSNLPDDLDVHAQAFLDNPLVVVARADHPLAHQKNLPLSVLDGADFVTREMGSGTRLAVEKLLAEHDVSVQVRLELGSNEAIKQAIAGGLGISVLSRHTLITEPPHGELTVLDVEHFPIQRHWYVAYLAGKQLSVIAQAFLEFMVRSSQKTLENSGRRSLALQP	not soluble
MANSAGSMIKEFCAENFTKIPQAIQKGANRIELCDNLAVGGTTPSTGVIEEVLAYAGEHSVPVMTIIRPRGGNFVYNDIELKIMHTDLIEAKKLGTDGIVIGCLTEDGWLDEEALDLFIETAEGLQITFHMAFDALSKENQFKAIDWLAERGVTRILTHGGPAGTPIEDNFDHLKELIVYADQRILILPGGGISTENVQTVMDTLKVTEVHGTKIVLEHHHHHH	not soluble
MVRVCACLIVKNEAAHLARCLGSVQPWVDDIVVVDTGSTDETPAIARQFTERLFTFPWQDDFAAARNYSLEQATGDWILVIDADEVLVTLQEPPVPLGQQLAGSPFTAYQLLRREIGTGEQFSDFAIVRLFRNLPTLRYQGRFHEQLVSTAAAPLTIGTLETLRIDHYGYQPAQIQAKMRDRNIPILERIRASEGLPLHLLFALADMYQAVNNPVEAENCYQELFDRLLPHLLSGQLPENAPGALPEILNQLGRRLLATGDHDTLQLLCQQGLAWFPTYPPLNDLAGRWLMTLGFPLGATAYFEYCLELGRTNGYSKQMIFPLGYVREIAAEQLGRAYEALGDRERAAAAFAQAAALRQGKAHPQLEHHHHHH	soluble
MGSDKIHHHHHHMEPTFQPSRSAIPVLSVSGVGKTYAEPVLADVTLTLAPGEALALTGENGAGKSTLSKIIGGLVDPTTGTMQLGGQAYAPASRTQAEALGVRMVMQELNLLPTLTVAENLFLNRLPRRFGIIDRARLHDDAQAAMARVGLDAIDPDTPVGALGIGHQQMVEIARNLIGDCRVLILDEPTAMLTAREVELLFEQIDRLKAHGVAIVYISHRLDELARVAERVAVLRDGRLVHVGDMAATTSDGLVTLMVGREIGEHIDLGPRRIGAPRLAVSGMTRGTAVQDVSLEVRSGEIFGISGLIGAGRTELLRLIYGADTPDAGMISVGDPLKPARIASPVDAVRHGIALITEDRKGEGLLLSQSVTSNVSLGQLEQLARGGIVNTARETALAEQQIDALRIRTHGAAQPVGELSGGNQQKVVIGRWLARDMGVLLFDEPTRGIDVGAKFEIYTLMGALARDGRALVVVSSDLRELMLICDRIGVMSAGRMTAVFERGNWTQDALLAAAFAGFGRDALPEGARHLDAQAAPRAASGTSTTGRQQ	not soluble
MGSDKIHHHHHHVGAGHPRKELEGKAKATKQQQDLKKLLSGQKHVAFPQQVVALPFDASANLTALVYEPLLPLQYSDYKGAQLITGLRKIHEKNVVHGDISVRNIMQSKQGVAKFIDLNPMDPLSESKKSRDIRYLGKSLLEMKFAKSLEQENHRMLSYIAKHEDIYSKAQSNQAYQELKYNNAWFTYSLTQSGSIEKVPGDMDTFLELLGMEEIIKRDLEKQAGEVFSFDGKFAKFISEQPDPENTDFTAMALYMLEHGQIPNNADGILAKLLRVKQ	not soluble
GSMDPSGVKVLETAEDIQERRQQVLDRYHRFKELSTLRRQKLEDSYRFQFFQRDAEELEKWIQEKLQIASDENYKDPTNLQGKLQKHQAFEAEVQANSGAIVKLDETGNLMISEGHFASETIRTRLMELHRQWELLLEKMREKGIKLLQ	soluble
MGSDKIHHHHHHMPRIHFNPDGRRSPTEFEPVTVHHRKPPLDGIISSHRHNWSQLTCPLKGSMRVTTERQVWTVTSFRAVWIPPGVDHELTMVGATEFHAVFIDPQHSPLPANQCCVVDVSPLMRELMQWLGADYGPATDHSRRLTDVLLEEVRRATRRTSALVLPGDRRLKSLCEALMEDPGSTLTLGEWAHRTGASERTLARLFQIELGTTFGAWRQQLRLSCAVDLLRSGLSLSRIAADLGYADSAAFSTMFKRAFGVAPSRYHASSAQAMN	not soluble
MAVGAPFLYRYSLYNCAYVILNGKVLGIVPKSYIPNYSEFYEKRWFTEGFNIKGLNVDLDFQKEVPFGTDLIFSFKNLKVGFEICEDLWVTIPPSSNLALMGANLICNLSASNELVSKSSYRKSLVQNQSARTMCSYIYSSAGVHESTTDLLFSGHMIIAENGTIIKENNRFKRENDLLTGIVDLFKLDAERIKNISFRNSTFNENNEPRFIPFNLENTEIKNFDREIDKHPFLPKSQYAMEARCEEILNIQAAALAKRLEHTNLKKAVIGISGGLDSTLALLVVVKTFDMLNIPRENIITITMPGFGTTDRTYNNAVTLCKELHCDFREINIVNAALQHFEDIGHDKDIHDVTYENVQARERTQILMDLANKEGGLLIGTGDLSELALGWCTYNGDHMSMYSVNCSIPKTLVRFLVNYFANHEISNDAKEALLDILDTPVSPELLPKDKEGKIAQKTEDIVGPYELHDFFLYHFIKHGSSPERILFLAKEAFKNDYDEETLKKWLDKFIRRFFTQQFKRSALPDGPKVGSISLSPRGDWRMPSDAVYNDFLILEHHHHHH	not soluble
MAHHHHHHMGFPAVPFVEDKNDAEILRDEADDEFASYFKEGRKPKILITTGEHPCFRTKLFVKEALWLFPNSIYRPRKKYNLKEITQFCINREFTDLIVVTDRLKEPYNLIISHLPEGPTAMFRVSNFMTHAQLKDPAPRTEHYPELIFKNFDTRLGRRINRLLECLFPATRDYEGRAVATFHNQRDYIFMRTHRYIFDSLDAVRIQEMGPRFTLRLLSLQSGTFDTQFGEYEWFRKKEHDDDKLEWYL	soluble
MKNKSLLLAVAISATLLAGCKNGVNGNLIASSGMSTYKAATLSDADVKALSNNACKQMDSENQLAGSKSKYTKRLSKIAKALGNNIDGTPVSYKVYMTSDINAWAMANGCVRVYSGLMDLMTDNEIEGVLGHELGHVSLGHSRKAMQTAYATLAARDAISATSGVAAQLSQSQLGDLAEGVINSAFSRSQESDADDFSYDLLKKRGINTQGLVTAFDKFATMDAGHAKSLMDSHPASADRAQHMRDRIAEDKKLEHHHHHH	not soluble
MGSDKIHHHHHHMAEELLPLKTVRNPRDLGGYTGFAGRKIKAGLLLRTGTVAAISEEDGNYLRARGVKTIIDLRSPQECRKRPDKKLAGIQNVNIPVNSRDQTKAEASLAELARQYGLDPLAGFRHMVESYRLMVTEEHAQAAFGQVLAYLAETEGGTIYHCSEGKDRTGLVTVFLLTVLGVDPETIRQDYLLSAPYLNVYRAKRDKEARENGESLVQRANLRSLGTVNNEYLDS	not soluble
MLPEIWKHDSPYFRPEGDTRGEAVLPIGMPMRQQYDFSSSRKNPYAAKLKKPVTIRLDEESISYFKSMSEETGIPYQSLINLYLKECAASGKRLNLSWK	not soluble
MAELDIGQHCQVQHCRQRDFLPFVCDGCSGIFCLEHRSKDSHGCSEVNVVKERPKTDEHKSY	soluble
MGHHHHHHSHMRRAALRLCALGKGQLTPGRGLTQGPQNPKKQGIFHIHEVRDKLREIVGASTNWRDHVKAMEERKLLHSFLAKSQDGLPPRRMKDSYIEVLLPLGSEPELREKYLTVQNTVRFGRILEDLDSLGVLICYMHNKIHSAKMSPLSIVTALVDKIDMCKKSLSPEQDIKFSGHVSWVGKTSMEVKMQMFQLHGDEFCPVLDATFVMVARDSENKG	not soluble
GGKDYPFARFNKTVQVPVYSEQEYQLYLHDDAWTKAETDHLFDLSRRFDLRFVVIHDRYDHQQFKKRSVEDLKERYYHICAKLANVRAVPGTD	soluble
MSLPFTTILRMSRSRLVKQKGNKKRMTTVVSNAREIAAIDLGSNSFHMVVAKVVDQDLQLISRHKQRVRLAAGLDEQKNLDEESIQRGLECLAMFAERLQGFEPRNVRIAATHTLRQARNANLFIQRALDVLPFPIEIIPGSEEARLIYLGVAHTQPQADSMLVVDIGGGSTEMIIGKGFEAELLNSKQMGCVNFTERYFANGKLSRKNFAQAIVASEQKLESIASKYRKKGWQMAFGSSGTIKAIHEVLIGQGHEDGLITFERLSKLIEKLCEWDSIDDLQLPGLTDDRKPVFAAGVAILSAIFHGLNIKEMHFSDGALREGLLYEMEDRFKYSDIRLRTTENLAAKHLVDLEHAAKVKGHAREFLAQVANELGLPEGSELCDLLEWGALLHEVGLSINLQGFHRHSAYILRHNNMAGFNSEQQLVLSNLARFQRKSLKLNELDDFSLFKKKHIIGLIRVLRLAIVVNGQRNDDPLPPLTLSAKDDEWRLECEQPDWLENNKLLHADLQTEQEYWREVGWQLLFEGHHHHHH	not soluble
MQDDPRYRVEVEVSPRFLAHQSTPEEGRYAFAYSIRIQNAGAVPARLIARHWKITDANGRTEQVDGEGVVGEQPRLRPGEAFHYTSGVLLETEQGQMQGYYDMVADDGTEFTAPIAAFVLSVPRTLHLEHHHHHH	soluble
